Assay [1] has as its target T1, Recombinant human CD8ab protein (extracellular domains of CD8a and CD8b with leucine zippers and tags) (human, UniProt P01732 22-182; P10966 22-170).
T1 construct: extracellular domain; Secreted from HEK293 cells; also called recombinant CD8ab; soluble CD8ab antigen; not shown: acidic leucine zipper; 8x Histidine tag; basic leucine zipper; Strep-tag II
Description: SPR as in Example 1 (antibody captured, soluble CD8ab as analyte). As for the experimental part:
(§1) Recombinant human CD8ab protein was generated. […] Antibodies were first captured on an anti-hJgG-Fc CM5 or CM4 surface prepared using the Human Antibody Capture Kit (Cytiva). […] Dissociation was monitored for 5-10 minutes, and the anti-hJgG-Fc surface was regenerated with 3M MgCl2 before recapturing mAb in each subsequent cycle. Binding data were analyzed by Biacore T200 Evaluation Software version 3.2 using a 1:1 binding model.

Assay [2] has as its target T2, Recombinant CD8a (Sino biological) (human, UniProt P01732 22-182).
T2 construct: also called CD8a alone
Nature of the assay: ELISA, coated recombinant CD8a, antibody 30 nM to 0.0009 nM. As for the experimental part: (§2) Binding specificity of the antibodies was determined by ELISA. […] of recombinant CD8ab, CD8a (Sino biological), CD8b (Sino biological) and ovalbumin (Sigma) or Erb2 (human epidermal growth factor receptor 2) (Sino biological) in PBS were coated onto the maxisorp plate overnight at 4° C. Ovalbumin or Erb2 was used as negative control. Plate was then blocked with casein blocking solution (Thermo Scientific) for 1 hr at room temperature. After blocking, plate was washed with wash buffer (PBS/0.05% Tween-20). Next, dilution of antibody from 30 nM to 0.0009 nM in PBS/0.5% BSA/0.05% Tween-20 was added onto the plate and incubated for 1-2 hr at room temperature. After incubation, plate was washed, and incubated with anti-human IgG (Fc specific)-HRP conjugate or anti-mouse IgG (Fc specific)-HRP conjugate (Jackson Immunoresearch) in PBS/0.5% BSA/0.05% Tween-20 for 1 hr. Binding was detected by adding TMB substrate (SeraCare) to the plate, followed by stopping solution of 0.1M HCl. Binding absorbance was read using GloMax® Discover Microplate Reader (Promega).

Assay [3] concerns the target T3, Recombinant CD8b (Sino biological) (human, UniProt P10966 22-170, limits assumed).
T3 construct: also called CD8b alone
Description: ELISA, coated recombinant CD8b. As for the experimental part:
as §2
For orientation: An ELISA detects its analyte on a solid surface through an enzyme-linked reagent.

The target in assay [4] is T1, Recombinant human CD8ab protein …. Description: SPR (Biacore T200, 37 C), antibody captured by anti-human IgG Fc, soluble CD8ab as analyte, 1:1 model. The protocol: as §1
For orientation: Surface plasmon resonance follows binding to a sensor surface in real time, without labels.

Assay [5] shares this target. Description: ELISA: antigen coated on the plate, antibody titrated, anti-IgG (Fc)-HRP and TMB, A450. As for the experimental part: as §2
For assay [6], the target named is T2, Recombinant CD8a (Sino biological). Described as above. The protocol:
as §2

Assay [7] has as its target T3, Recombinant CD8b (Sino biological). Described as above. The protocol:
as §2

Experimental findings from US20220162314A1 (ASHER BIOTHERAPEUTICS, published 2022) are described below.

Usually Kd stands for the free concentration of one partner at which half of the binding sites on the other are occupied at equilibrium, for simple one-to-one binding. Usually koff stands for the first-order rate constant of dissociation. The kon is the rate constant with which the complex forms. One may read the EC50 (read off the curve) as the concentration needed to bring the measured effect to its halfway point.

T3 sequence (P10966 22-170 limits assumed): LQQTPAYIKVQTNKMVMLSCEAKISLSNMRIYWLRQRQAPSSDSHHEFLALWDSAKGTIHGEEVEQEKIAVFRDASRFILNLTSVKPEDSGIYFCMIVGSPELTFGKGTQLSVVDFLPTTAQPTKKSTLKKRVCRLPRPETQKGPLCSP
T1 sequence (P01732 22-182, chain 1 of 2): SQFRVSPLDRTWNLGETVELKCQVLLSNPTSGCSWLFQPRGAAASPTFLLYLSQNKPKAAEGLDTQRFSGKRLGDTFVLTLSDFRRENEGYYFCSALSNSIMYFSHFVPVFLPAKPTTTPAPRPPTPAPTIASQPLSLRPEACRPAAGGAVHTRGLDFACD
T1 sequence (P10966 22-170, chain 2 of 2): as the sequence (P10966 22-170 limits assumed) above
T2 sequence (P01732 22-182 limits assumed): as the sequence (P01732 22-182, chain 1 of 2) above

B1: xhCD8v10 (antibody, human IgG1, V domains shown)
VH: EVQLVESGGGLVQPGGSLRLSCAASGFTFSSYAMSWVRQAPGKGLEWVSDITYAGGSTAYADSVKGRFTISRDNAKNSLYLQMNSLRAEDTAVYYCARSNAYAWDDALDIWGQGTMVTVSS
VL: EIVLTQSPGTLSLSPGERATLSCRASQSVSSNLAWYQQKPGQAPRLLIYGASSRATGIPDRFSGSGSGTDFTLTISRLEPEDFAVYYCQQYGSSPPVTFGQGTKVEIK
notes: Improved version based on xhCD8v6
Regarding B1, in assay [1], the Kd came to 36.4 nM, the koff came to 0.00386 s⁻¹ and the kon came to 106000 M⁻¹ s⁻¹.

B2: xhCD8v11 (antibody, human IgG1, V domains shown)
VH: EVQLVESGGGLVQPGGSLRLSCAASGFTFSSYAMSWVRQAPGKGLEWVSDITYAGGSTAYADSVKGRFTISRDNAKNSLYLQMNSLRAEDTAVYYCARSNAYAWDDALDIWGQGTLVTVSS
VL: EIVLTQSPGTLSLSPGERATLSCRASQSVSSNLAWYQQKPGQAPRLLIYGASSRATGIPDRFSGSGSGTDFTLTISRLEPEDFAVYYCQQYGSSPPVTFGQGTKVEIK
notes: as for B1
With B2, in assay [1], the Kd came out at 37.8 nM, the koff is 0.00361 s⁻¹ and the association rate constant (kon) stood at 95500 M⁻¹ s⁻¹.

B3: xhCD8v15 (antibody, human IgG1, V domains shown)
VH: EVQLVESGGGLVQPGGSLRLSCAASGFTFSSYAMSWVRQAPGKGLEWVSDISYAGGSTAYADSVKGRFTISRDNAKNSLYLQMNSLRAEDTAVYYCARSNAYAWDDALDIWGQGTLVTVSS
VL: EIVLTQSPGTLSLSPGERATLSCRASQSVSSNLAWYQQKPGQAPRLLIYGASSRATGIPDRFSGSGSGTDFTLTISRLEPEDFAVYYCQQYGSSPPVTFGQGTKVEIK
notes: as for B1
Take B3: in assay [1], the Kd stood at 94.3 nM, the koff amounted to 0.0175 s⁻¹ and the kon was determined as 186000 M⁻¹ s⁻¹.

B4: xhCD8v14 (antibody, human IgG1, V domains shown)
VH: EVQLVESGGGLVQPGGSLRLSCAASGFTFSSYAMSWVRQAPGKGLEWVSDISYAGGSTAYADSVKGRFTISRDNAKNSLYLQMNSLRAEDTAVYYCARSNAYAWDDALDIWGQGTMVTVSS
VL: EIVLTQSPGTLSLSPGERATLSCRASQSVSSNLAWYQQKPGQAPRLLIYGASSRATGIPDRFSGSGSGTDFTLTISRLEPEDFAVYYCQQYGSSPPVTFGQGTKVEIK
notes: as for B1
Consider B4, for which, in assay [1], the Kd is 52.9 nM, the koff stood at 0.00855 s⁻¹ and the kon came out at 162000 M⁻¹ s⁻¹.

B5: xhCD8v13 (antibody, human IgG1, V domains shown)
VH: QVQLVQSGAEVKKPGSSVKVSCKASGGTFSSYAISWVRQAPGQGLEWMGGIIPGYATANYAQKFQGRVTITADESTSTAYMELSSLRSEDTAVYYCARDAAGIRLFADWGQGTLVTVSS
VL: DIQMTQSPSSLSASVGDRVTITCRASQEIYGALNWYQQKPGKAPKLLIYGATNLQSGVPSRFSGSGSGTDFTLTISSLQPEDFATYYCQSTYDAPWTFGGGTKVEIK
notes: Improved version based on xhCD8v2
Take B5: the binding result in assay [2] is reported as “no binding (tested: 30 nM)”. Moreover, in assay [1], the Kd came to 81.8 nM, the koff amounted to 0.0301 s⁻¹ and the kon came to 368000 M⁻¹ s⁻¹. Also, the binding result in assay [3] is on record as “binds”.

B6: xhCD8v3 (antibody, human IgG1, V domains shown)
VH: QVQLVQSGAEVKKPGSSVKVSCKASGSRFYKFAISWVRQAPGQGLEWMGGIIPGHAKANYAQKFQGRVTITADESTSTAYMELSSLRSEDTAVYYCARDGLGIRLFADWGQGTLVTVSS
VL: DIQMTQSPSSLSASVGDRVTITCRASQEIYGALNWYQQKPGKAPKLLIYGATNLQSGVPSRFSGSGSGTDFTLTISSLQPEDFATYYCQDIYDAPWTFGGGTKVEIK
On to B6, for which the binding result in assay [2] is “no binding (tested: 30 nM)”. Also, the binding result in assay [3] is given as “binds”. In assay [4], the Kd amounted to 72.3 nM, the koff amounted to 0.0379 s⁻¹ and the kon turned out to be 524000 M⁻¹ s⁻¹.

B7: xhCD8v9 (antibody, human IgG1, V domains shown)
VH: QVQLVQSGAEVKKPGSSVKVSCKASGGTFSSYAISWVRQAPGQGLEWMGGIIPGAATANYAQKFQGRVTITADESTSTAYMELSSLRSEDTAVYYCARDAAGIRLFADWGQGTLVTVSS
VL: DIQMTQSPSSLSASVGDRVTITCRASQEIYGALNWYQQKPGKAPKLLIYGATNLQSGVPSRFSGSGSGTDFTLTISSLQPEDFATYYCQSTYDAPWTFGGGTKVEIK
notes: as for B5
In the case of B7, the binding result in assay [2] is “no binding (tested: 30 nM)”. Further, in assay [1], the Kd was determined as 121 nM, the koff was 0.0273 s⁻¹ and the kon turned out to be 225000 M⁻¹ s⁻¹. The binding result in assay [3] is reported as “binds”.

B8: xhCD8v12 (antibody, human IgG1, V domains shown)
VH: QVQLVQSGAEVKKPGSSVKVSCKASGGTFSSYAISWVRQAPGQGLEWMGGIIPGYATANYAQKFQGRVTITADESTSTAYMELSSLRSEDTAVYYCARDAAGIRLFADWGQGTLVTVSS
VL: DIQMTQSPSSLSASVGDRVTITCRASQSIYGALNWYQQKPGKAPKLLIYGASNLQSGVPSRFSGSGSGTDFTLTISSLQPEDFATYYCQSTYTAPWTFGGGTKVEIK
notes: as for B5
Take B8: the “EC50 (read off the curve)” value in assay [5] is approximately 0.02 nM. Moreover, the binding result in assay [6] was “no binding (tested: 30 nM)”. Also, the “EC50 (read off the curve)” value in assay [7] was approximately 0.05 nM. In assay [1], the equilibrium dissociation constant (Kd) was determined as 105 nM, the koff was 0.0271 s⁻¹ and the kon was determined as 259000 M⁻¹ s⁻¹.

B9: xhCD8v4 (antibody, human IgG1, V domains shown)
VH: QVQLVQSGAEVKKPGSSVKVSCKASGYTFTKYAISWVRQAPGQGLEWMGGIIPGHAKANYAQKFQGRVTITADESTSTAYMELSSLRSEDTAVYYCARDGLGIRLFADWGQGTLVTVSS
VL: DIQMTQSPSSLSASVGDRVTITCRASQKIYGALNWYQQKPGKAPKLLIYGATNLQSGVPSRFSGSGSGTDFTLTISSLQPEDFATYYCQNTYDTPWTFGGGTKVEIK
As for B9, in assay [2], the binding result is reported as “no binding (tested: 30 nM)”. Further, the binding result in assay [3] is on record as “binds”. In assay [4], the Kd was 137 nM, the koff came out at 0.0493 s⁻¹ and the kon worked out at 360000 M⁻¹ s⁻¹.

B10: xhCD8v5 (antibody, human IgG1, V domains shown)
VH: QVQLVQSGAEVKKPGSSVKVSCKASGSGFRGHAISWVRQAPGQGLEWMGGIIPGHAKANYAQKFQGRVTITADESTSTAYMELSSLRSEDTAVYYCARDGLGIRLFADWGQGTLVTVSS
VL: DIQMTQSPSSLSASVGDRVTITCRASQKIYGALNWYQQKPGKAPKLLIYGATNLQSGVPSRFSGSGSGTDFTLTISSLQPEDFATYYCQNTYDTPWTFGGGTKVEIK
As for B10, the binding result in assay [2] is recorded as “no binding (tested: 30 nM)”. Also, the binding result in assay [3] is reported as “binds”. In addition, in assay [4], the Kd amounted to 117 nM, the koff came out at 0.0419 s⁻¹ and the kon was 357000 M⁻¹ s⁻¹.

B11: xhCD8v2 (antibody, human IgG1, V domains shown)
VH: QVQLVQSGAEVKKPGSSVKVSCKASGYRFHNFAISWVRQAPGQGLEWMGGIIPGHAKANYAQKFQGRVTITADESTSTAYMELSSLRSEDTAVYYCARDGLGIRLFADWGQGTLVTVSS
VL: DIQMTQSPSSLSASVGDRVTITCRASQEIYGALNWYQQKPGKAPKLLIYGATNLQSGVPSRFSGSGSGTDFTLTISSLQPEDFATYYCQDIYDAPWTFGGGTKVEIK
As for B11, in assay [5], the “EC50 (read off the curve)” value was approximately 0.03 nM. The binding result in assay [6] is “no binding (tested: 30 nM)”. Besides, the “EC50 (read off the curve)” value in assay [7] was approximately 0.06 nM. Besides, in assay [4], the Kd came out at 41.6 nM, the koff is 0.02 s⁻¹ and the kon was 483000 M⁻¹ s⁻¹.
